First the molecules themselves.
B1: PSD2 (parent)
chain: LTHFSRRYCQCNPDDSTSEDGIHT
B2: C22orf31 (parent)
chain: YSLELGKAIKQKLWEALCSQGAIS
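Also: lentivirally expressed fusions sorted by FACS into six bins by GFP to DsRed ratio, PSI derived from sequencing read proportions per bin multiplied by bin number.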

In one data set the parent is B1. As to the kind of experiment: protein stability index of a GFP-peptide fusion (GPS, HEK-293T) (PSI 1-6); higher = more stable. The note with it: c terminus: a fixed tail appended.
In the case of LTHFSRRYCQCNPDDSTSEDGIHW [T24W], the protein stability index is 2.26.

For LTHFSRRYCQCNPDDSTSEDGIHI [T24I], the protein stability index came to 3.05.

Turning to LTHFSRRYCQCNPDDSTSEDGIHR [T24R], the protein stability index came out at 2.27.

With LTHFSRRYCQCNPDDSTSEDGIHH [T24H], the protein stability index came to 2.5.

Take LTHFSRRYCQCNPDDSTSEDGIHS [T24S]: the protein stability index turned out to be 3.02.

With LTHFSRRYCQCNPDDSTSEDGIHL [T24L], the protein stability index came to 2.38.

On to LTHFSRRYCQCNPDDSTSEDGIHP [T24P], for which the protein stability index amounted to 3.82.

As for LTHFSRRYCQCNPDDSTSEDGIHM [T24M], the protein stability index stood at 2.52.

As for LTHFSRRYCQCNPDDSTSEDGIHQ [T24Q], the protein stability index amounted to 3.37.

Take LTHFSRRYCQCNPDDSTSEDGIHY [T24Y]: the protein stability index amounted to 2.34.

For LTHFSRRYCQCNPDDSTSEDGIHK [T24K], the protein stability index turned out to be 2.61.

In the case of LTHFSRRYCQCNPDDSTSEDGIHV [T24V], the protein stability index was 3.36.

LTHFSRRYCQCNPDDSTSEDGIHN [T24N]: the protein stability index worked out at 3.4.

In another data set the parent is B2. The data set is described as above. To be noted: c terminus: a fixed tail appended.
YSLELGKVIKQKLWEALCSQGAIS [A8V]: the protein stability index was 2.75.

For YSLELGKGIKQKLWEALCSQGAIS [A8G], the protein stability index stood at 1.63.

With YSLELGKWIKQKLWEALCSQGAIS [A8W], the protein stability index amounted to 1.81.

YSLELGKIIKQKLWEALCSQGAIS [A8I]: the protein stability index is 2.24.

As for YSLELGKTIKQKLWEALCSQGAIS [A8T], the protein stability index stood at 1.97.

For the variant YSLELGKMIKQKLWEALCSQGAIS [A8M], the protein stability index came to 2.31.

Turning to YSLELGKNIKQKLWEALCSQGAIS [A8N], the protein stability index turned out to be 2.57.

On to YSLELGKQIKQKLWEALCSQGAIS [A8Q], for which the protein stability index came out at 1.64.

In the case of YSLELGKPIKQKLWEALCSQGAIS [A8P], the protein stability index stood at 1.84.

With YSLELGKKIKQKLWEALCSQGAIS [A8K], the protein stability index turned out to be 1.61.

As for YSLELGKHIKQKLWEALCSQGAIS [A8H], the protein stability index was determined as 2.73.

Turning to YSLELGKDIKQKLWEALCSQGAIS [A8D], the protein stability index stood at 1.76.

Regarding YSLELGKEIKQKLWEALCSQGAIS [A8E], the protein stability index came to 2.17.

On to YSLELGKYIKQKLWEALCSQGAIS [A8Y], for which the protein stability index worked out at 2.97.

Regarding YSLELGKSIKQKLWEALCSQGAIS [A8S], the protein stability index was 2.19.

For YSLELGKRIKQKLWEALCSQGAIS [A8R], the protein stability index turned out to be 2.51.

YSLELGKFIKQKLWEALCSQGAIS [A8F]: the protein stability index came out at 1.7.

Turning to YSLELGKAIAQKLWEALCSQGAIS [K10A], the protein stability index was found to be 1.52.

As to YSLELGKAICQKLWEALCSQGAIS [K10C], the protein stability index was 2.31.

As for YSLELGKAIYQKLWEALCSQGAIS [K10Y], the protein stability index was 1.9.

Regarding YSLELGKAIHQKLWEALCSQGAIS [K10H], the protein stability index came out at 1.95.

Consider YSLELGKAIRQKLWEALCSQGAIS [K10R], for which the protein stability index is 1.15.

In the case of YSLELGKAIDQKLWEALCSQGAIS [K10D], the protein stability index is 1.63.

For the variant YSLELGKAIQQKLWEALCSQGAIS [K10Q], the protein stability index stood at 2.64.

With YSLELGKAIEQKLWEALCSQGAIS [K10E], the protein stability index was found to be 2.55.

YSLELGKAIPQKLWEALCSQGAIS [K10P]: the protein stability index was determined as 2.27.

For the variant YSLELGKAIIQKLWEALCSQGAIS [K10I], the protein stability index was determined as 2.95.

Regarding YSLELGKAIMQKLWEALCSQGAIS [K10M], the protein stability index stood at 2.22.

In the case of YSLELGKAIFQKLWEALCSQGAIS [K10F], the protein stability index turned out to be 3.08.

Regarding YSLELGKAINQKLWEALCSQGAIS [K10N], the protein stability index is 2.54.

YSLELGKAIKGKLWEALCSQGAIS [Q11G]: the protein stability index worked out at 3.21.

In the case of YSLELGKAIKSKLWEALCSQGAIS [Q11S], the protein stability index is 2.01.

In the case of YSLELGKAIKWKLWEALCSQGAIS [Q11W], the protein stability index turned out to be 3.82.

On to YSLELGKAIKAKLWEALCSQGAIS [Q11A], for which the protein stability index was found to be 2.47.

As for YSLELGKAIKFKLWEALCSQGAIS [Q11F], the protein stability index was determined as 3.62.

Consider YSLELGKAIKPKLWEALCSQGAIS [Q11P], for which the protein stability index worked out at 1.36.

Consider YSLELGKAIKIKLWEALCSQGAIS [Q11I], for which the protein stability index is 1.75.

For the variant YSLELGKAIKYKLWEALCSQGAIS [Q11Y], the protein stability index was 1.92.

Turning to YSLELGKAIKRKLWEALCSQGAIS [Q11R], the protein stability index worked out at 3.36.

As for YSLEPGKAIKQKLWEALCSQGAIS [L5P], the protein stability index was 1.62.

In the case of YSLEYGKAIKQKLWEALCSQGAIS [L5Y], the protein stability index stood at 1.86.

Regarding YSLESGKAIKQKLWEALCSQGAIS [L5S], the protein stability index came out at 1.5.

YSLEWGKAIKQKLWEALCSQGAIS [L5W]: the protein stability index turned out to be 1.96.

Take YSLEQGKAIKQKLWEALCSQGAIS [L5Q]: the protein stability index was found to be 1.35.

YSLEGGKAIKQKLWEALCSQGAIS [L5G]: the protein stability index is 1.82.

With YSLEAGKAIKQKLWEALCSQGAIS [L5A], the protein stability index was found to be 1.83.

With YSLEHGKAIKQKLWEALCSQGAIS [L5H], the protein stability index amounted to 2.19.

For the variant YSLENGKAIKQKLWEALCSQGAIS [L5N], the protein stability index stood at 1.59.

In the case of YSLEEGKAIKQKLWEALCSQGAIS [L5E], the protein stability index came to 2.21.

For the variant YSLEDGKAIKQKLWEALCSQGAIS [L5D], the protein stability index came out at 2.11.

Take YSLEIGKAIKQKLWEALCSQGAIS [L5I]: the protein stability index was 3.07.

For YSLEMGKAIKQKLWEALCSQGAIS [L5M], the protein stability index came out at 2.14.

On to YSLEKGKAIKQKLWEALCSQGAIS [L5K], for which the protein stability index was 2.64.

Take YSLEFGKAIKQKLWEALCSQGAIS [L5F]: the protein stability index came to 4.05.

As for YSLETGKAIKQKLWEALCSQGAIS [L5T], the protein stability index worked out at 1.75.

Take YSLELGCAIKQKLWEALCSQGAIS [K7C]: the protein stability index came out at 1.73.

For YSLELGTAIKQKLWEALCSQGAIS [K7T], the protein stability index is 2.46.

Turning to YSLELGEAIKQKLWEALCSQGAIS [K7E], the protein stability index was 2.34.

Take YSLELGRAIKQKLWEALCSQGAIS [K7R]: the protein stability index came to 1.6.

Take YSLELGPAIKQKLWEALCSQGAIS [K7P]: the protein stability index came out at 2.68.

As for YSLELGDAIKQKLWEALCSQGAIS [K7D], the protein stability index worked out at 2.63.

For the variant YSLELGVAIKQKLWEALCSQGAIS [K7V], the protein stability index worked out at 2.31.

Take YSLELGYAIKQKLWEALCSQGAIS [K7Y]: the protein stability index was found to be 2.1.

With YSLELGGAIKQKLWEALCSQGAIS [K7G], the protein stability index turned out to be 1.24.

For YSLELGIAIKQKLWEALCSQGAIS [K7I], the protein stability index worked out at 3.6.

As for YSLELGQAIKQKLWEALCSQGAIS [K7Q], the protein stability index was 2.

In the case of YSLELAKAIKQKLWEALCSQGAIS [G6A], the protein stability index came out at 1.94.

For YSLELLKAIKQKLWEALCSQGAIS [G6L], the protein stability index came to 2.97.

Turning to YSLELNKAIKQKLWEALCSQGAIS [G6N], the protein stability index was 1.91.

As to YSLELKKAIKQKLWEALCSQGAIS [G6K], the protein stability index turned out to be 1.73.

For the variant YSLELRKAIKQKLWEALCSQGAIS [G6R], the protein stability index was determined as 2.73.

YSLELCKAIKQKLWEALCSQGAIS [G6C]: the protein stability index stood at 2.16.

Take YSLELYKAIKQKLWEALCSQGAIS [G6Y]: the protein stability index was 2.27.

Consider YSLELFKAIKQKLWEALCSQGAIS [G6F], for which the protein stability index is 2.28.

As for YSLELSKAIKQKLWEALCSQGAIS [G6S], the protein stability index worked out at 1.25.

Take YSLELDKAIKQKLWEALCSQGAIS [G6D]: the protein stability index turned out to be 1.9.

Consider YSLELHKAIKQKLWEALCSQGAIS [G6H], for which the protein stability index is 1.59.

With YSLELQKAIKQKLWEALCSQGAIS [G6Q], the protein stability index was determined as 1.98.

With YSLELEKAIKQKLWEALCSQGAIS [G6E], the protein stability index turned out to be 2.03.

As for YSLELPKAIKQKLWEALCSQGAIS [G6P], the protein stability index is 1.36.

In the case of YSLELTKAIKQKLWEALCSQGAIS [G6T], the protein stability index amounted to 1.86.

These data come from the supplement of paper PMC10567573.
